Test results published in PMC6910952 (Nature Communications, 2019).
Residue numbers refer to the chain shown, from its start. Names and notes keep the numbering of the source. No end group written: not given here.

T1: His6-yNpl4^113–580 (Saccharomyces cerevisiae, UniProt P33755 113-580)
T1 construct: codon-optimized synthetic cDNA; also called WT; WT #1; source: E. coli Rosetta (DE3), purified (Ni-NTA, Resource Q); also in lysate, mixed with cells expressing GST-yUfd1 for co-purification; not shown: His6, N-terminal, kept
T1 sequence (looked up): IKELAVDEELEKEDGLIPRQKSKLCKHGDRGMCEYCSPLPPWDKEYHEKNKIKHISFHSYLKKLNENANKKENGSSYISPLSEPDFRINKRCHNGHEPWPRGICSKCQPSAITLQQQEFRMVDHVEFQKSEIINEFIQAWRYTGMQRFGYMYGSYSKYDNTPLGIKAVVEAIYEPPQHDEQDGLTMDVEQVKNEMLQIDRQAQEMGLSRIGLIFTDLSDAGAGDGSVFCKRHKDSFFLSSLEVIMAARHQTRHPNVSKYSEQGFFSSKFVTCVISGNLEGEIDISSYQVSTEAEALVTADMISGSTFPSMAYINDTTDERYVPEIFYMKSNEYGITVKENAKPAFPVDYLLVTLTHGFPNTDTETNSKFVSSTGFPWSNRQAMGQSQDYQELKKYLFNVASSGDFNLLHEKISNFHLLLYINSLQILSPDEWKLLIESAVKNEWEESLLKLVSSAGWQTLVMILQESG

B1: GST-yNpl4 T571A (natural protein, Saccharomyces cerevisiae, UniProt P33755 1-580, looked up)
chain: MLIRFRSKNGTHRVSCQENDLFGTVIEKLVGNLDPNADVDTFTVCEKPGQGIHAVSELADRTVMDLGLKHGDMLILNYSDKPANEKDGVNVEIGSVGIDSKGIRQHRYGPLRIKELAVDEELEKEDGLIPRQKSKLCKHGDRGMCEYCSPLPPWDKEYHEKNKIKHISFHSYLKKLNENANKKENGSSYISPLSEPDFRINKRCHNGHEPWPRGICSKCQPSAITLQQQEFRMVDHVEFQKSEIINEFIQAWRYTGMQRFGYMYGSYSKYDNTPLGIKAVVEAIYEPPQHDEQDGLTMDVEQVKNEMLQIDRQAQEMGLSRIGLIFTDLSDAGAGDGSVFCKRHKDSFFLSSLEVIMAARHQTRHPNVSKYSEQGFFSSKFVTCVISGNLEGEIDISSYQVSTEAEALVTADMISGSTFPSMAYINDTTDERYVPEIFYMKSNEYGITVKENAKPAFPVDYLLVTLTHGFPNTDTETNSKFVSSTGFPWSNRQAMGQSQDYQELKKYLFNVASSGDFNLLHEKISNFHLLLYINSLQILSPDEWKLLIESAVKNEWEESLLKLVSSAGWQALVMILQESG
notes: Npl4 of Saccharomyces cerevisiae (yNpl4), full length; source: E. coli Rosetta (DE3) (pGEX-6P1), purified (Glutathione Sepharose FF, Resource Q); not shown: GST, N-terminal, kept
B2: GST-yNpl4 M574A (natural protein, Saccharomyces cerevisiae, UniProt P33755 1-580, looked up)
chain: B1 chain with A571T, M574A
notes: as for B1
B3: GST-yNpl4 M574Q (natural protein, Saccharomyces cerevisiae, UniProt P33755 1-580, looked up)
chain: B1 chain with A571T, M574Q
notes: as for B1
B4: GST-yNpl4 I575A (natural protein, Saccharomyces cerevisiae, UniProt P33755 1-580, looked up)
chain: B1 chain with A571T, I575A
notes: as for B1
B5: GST-yNpl4 A494F (natural protein, Saccharomyces cerevisiae, UniProt P33755 1-580, looked up)
chain: B1 chain with A494F, A571T
notes: as for B1
B6: GST-yNpl4 S498R (natural protein, Saccharomyces cerevisiae, UniProt P33755 1-580, looked up)
chain: B1 chain with S498R, A571T
notes: as for B1
B7: FlAsH-labeled His6-SUMO-yUfd1^288–305-GWCCPGCC E296A (peptide, UniProt P53044 288-305, looked up)
chain: {His6-SUMO}-EPAKLDLPAGQLFFGFPMGWCCPGCC
modifications: cysteine pairing not given here; also: FlAsH label bound to CCPGCC motif
notes: Ufd1 of Saccharomyces cerevisiae (yUfd1), residues 288-305 (NBM); also called yUfd1 E296A; source: E. coli Rosetta (DE3) (pCold-SUMO), purified (Ni-NTA, Resource Q), labeled with FlAsH-EDT2; not shown: His6, N-terminal, kept; SUMO, N-terminal, kept
B8: FlAsH-labeled His6-SUMO-yUfd1^288–305-GWCCPGCC F301A (peptide, UniProt P53044 288-305, looked up)
chain: {His6-SUMO}-EPAKLDLPEGQLFAGFPMGWCCPGCC
modifications: cysteine pairing not given here; also: FlAsH label bound to CCPGCC motif
notes: Ufd1 of Saccharomyces cerevisiae (yUfd1), residues 288-305 (NBM); also called yUfd1 F301A; source: E. coli Rosetta (DE3) (pCold-SUMO), purified (Ni-NTA, Resource Q), labeled with FlAsH-EDT2; not shown: His6, N-terminal, kept; SUMO, N-terminal, kept
B9: FlAsH-labeled His6-SUMO-yUfd1^288–305-GWCCPGCC F303A (peptide, UniProt P53044 288-305, looked up)
chain: {His6-SUMO}-EPAKLDLPEGQLFFGAPMGWCCPGCC
modifications: cysteine pairing not given here; also: FlAsH label bound to CCPGCC motif
notes: Ufd1 of Saccharomyces cerevisiae (yUfd1), residues 288-305 (NBM); also called yUfd1 F303A; source: E. coli Rosetta (DE3) (pCold-SUMO), purified (Ni-NTA, Resource Q), labeled with FlAsH-EDT2; not shown: His6, N-terminal, kept; SUMO, N-terminal, kept
B10: FlAsH-labeled His6-SUMO-yUfd1^288–305-GWCCPGCC G297L (peptide, UniProt P53044 288-305, looked up)
chain: {His6-SUMO}-EPAKLDLPELQLFFGFPMGWCCPGCC
modifications: cysteine pairing not given here; also: FlAsH label bound to CCPGCC motif
notes: Ufd1 of Saccharomyces cerevisiae (yUfd1), residues 288-305 (NBM); also called yUfd1 G297L; source: E. coli Rosetta (DE3) (pCold-SUMO), purified (Ni-NTA, Resource Q), labeled with FlAsH-EDT2; not shown: His6, N-terminal, kept; SUMO, N-terminal, kept
B11: FlAsH-labeled His6-SUMO-yUfd1^288–305-GWCCPGCC G297R (peptide, UniProt P53044 288-305, looked up)
chain: {His6-SUMO}-EPAKLDLPERQLFFGFPMGWCCPGCC
modifications: cysteine pairing not given here; also: FlAsH label bound to CCPGCC motif
notes: Ufd1 of Saccharomyces cerevisiae (yUfd1), residues 288-305 (NBM); also called yUfd1 G297R; source: E. coli Rosetta (DE3) (pCold-SUMO), purified (Ni-NTA, Resource Q), labeled with FlAsH-EDT2; not shown: His6, N-terminal, kept; SUMO, N-terminal, kept
B12: FlAsH-labeled His6-SUMO-yUfd1^288–305-GWCCPGCC G297Y (peptide, UniProt P53044 288-305, looked up)
chain: {His6-SUMO}-EPAKLDLPEYQLFFGFPMGWCCPGCC
modifications: cysteine pairing not given here; also: FlAsH label bound to CCPGCC motif
notes: Ufd1 of Saccharomyces cerevisiae (yUfd1), residues 288-305 (NBM); also called yUfd1 G297Y; source: E. coli Rosetta (DE3) (pCold-SUMO), purified (Ni-NTA, Resource Q), labeled with FlAsH-EDT2; not shown: His6, N-terminal, kept; SUMO, N-terminal, kept

Biological target: T2, Cdc48 (recombinant, hexameric) (Saccharomyces cerevisiae, UniProt P25694 1-835)
T2 construct: Cdc48 AAA-family ATPase of Saccharomyces cerevisiae; source: E. coli Rosetta (DE3) (pET21a), purified (TALON resin, Superose 6)
T2 sequence (P25694 whole entry): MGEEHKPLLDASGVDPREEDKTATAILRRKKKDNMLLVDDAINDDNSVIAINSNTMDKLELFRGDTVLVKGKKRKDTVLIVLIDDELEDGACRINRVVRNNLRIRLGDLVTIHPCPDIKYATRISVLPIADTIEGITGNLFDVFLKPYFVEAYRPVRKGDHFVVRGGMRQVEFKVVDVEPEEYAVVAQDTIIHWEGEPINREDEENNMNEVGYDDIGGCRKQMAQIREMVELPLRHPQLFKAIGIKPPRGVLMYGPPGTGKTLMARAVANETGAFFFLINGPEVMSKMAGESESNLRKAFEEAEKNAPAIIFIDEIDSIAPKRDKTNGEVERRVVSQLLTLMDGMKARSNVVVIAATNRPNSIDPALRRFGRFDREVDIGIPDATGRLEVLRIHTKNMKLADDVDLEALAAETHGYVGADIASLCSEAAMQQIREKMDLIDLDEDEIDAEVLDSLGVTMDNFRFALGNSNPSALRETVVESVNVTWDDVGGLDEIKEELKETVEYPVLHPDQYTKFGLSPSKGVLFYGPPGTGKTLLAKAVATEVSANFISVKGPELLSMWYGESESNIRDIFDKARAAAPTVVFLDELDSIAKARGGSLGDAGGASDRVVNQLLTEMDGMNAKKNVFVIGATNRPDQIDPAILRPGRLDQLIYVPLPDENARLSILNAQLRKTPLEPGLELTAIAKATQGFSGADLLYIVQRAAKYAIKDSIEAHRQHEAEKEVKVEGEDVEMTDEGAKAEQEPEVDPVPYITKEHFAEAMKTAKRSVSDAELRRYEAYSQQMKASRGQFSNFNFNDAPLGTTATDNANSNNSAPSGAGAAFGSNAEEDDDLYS
Assay: pull-down; GST-yNpl4 (0.5 μM, wild type or mutant) on Glutathione Sepharose 4B beads, 1 h at room temperature with 0.5 μM yUfd1, 3 μM Cdc48 (0.5 μM hexamer) and 1 μg K48 chains in 100 μL 50 mM Tris-HCl pH 7.5, 100 mM NaCl, 10% glycerol, 0.1% Triton X-100; chains detected by anti-Ub immunoblot, proteins by Ponceau S
Conditions: both partners purified

Binder | binding result
B1 | binds
B2 | binds
B3 | binds
B4 | binds
B5 | binds
B6 | binds

Biological target: T1, His6-yNpl4^113–580
Assay: fluorescence polarisation; fluorescence anisotropy; 1 nM FlAsH-labeled His6-SUMO-yUfd1 peptide, His6-yNpl4^113–580 in two-fold dilution series; 25 °C; 50 mM Tris-HCl pH 8.0, 100 mM NaCl, 5 mM β-mercaptoethanol, 0.1 g/L BSA
Conditions: both partners purified

Binder | Kd
B7 | 437 nM
B8 | 20800 nM
B9 | 1770 nM
B10 | 619 nM
B11 | 20900 nM
B12 | 2140 nM
